Test results: US20030092613A1, “Alpha7 nicotinic receptor peptides as ligands for beta amyloid peptides” (priority 2000, published 2003)

Target: β-amyloid1-42 (UniProt P05067)
Assay: cell-based or functional assay

Q: For cyclic peptide (Ac)ECCK-amide, which ACh rel % Inh @ 100 µM is on record?
A: Its ACh rel % Inh @ 100 µM is 87%.
